Experimental findings from article PMC4215538, “A clathrin coat assembly role for the muniscin protein central linker revealed by TALEN-mediated gene editing” (eLife, 2014) are described below.

The target in this test is T1, AP-2 α appendage (mouse, UniProt P17427 701-938).
T1 construct: AP-2 αC subunit appendage, mouse, residues 701–938; It was added soluble to glutathione-Sepharose pull-downs, so GST was probably removed; also called αC appendage (mouse residues 701–938); purified AP-2 α appendage; source: purified (from the GST-αC appendage construct described previously)
The test is described as follows: pull-down; ~200 μg GST fusion on glutathione-Sepharose; rat brain cytosol supplemented with 5 μM or 25 μM purified AP-2 α appendage; recovery of the added α appendage in the pellets. Conditions: both partners purified.

T1 sequence (P17427 701-938): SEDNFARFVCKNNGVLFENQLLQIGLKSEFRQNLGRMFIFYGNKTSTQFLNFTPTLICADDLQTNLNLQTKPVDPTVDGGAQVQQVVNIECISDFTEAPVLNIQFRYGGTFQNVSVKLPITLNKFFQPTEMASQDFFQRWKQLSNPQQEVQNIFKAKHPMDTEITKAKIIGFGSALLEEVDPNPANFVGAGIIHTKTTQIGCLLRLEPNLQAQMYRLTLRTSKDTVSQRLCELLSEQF

B1: GST-EPS15 (595–740) (domain or fragment, UniProt P42566 595-740, looked up)
chain: SKEEDPFNVDSSSLTGPVADTNLDFFQSDPFVGSDPFKDDPFGKIDPFGGDPFKGSDPFASDCFFRQSTDPFATSSTDPFSAANNSSITSVETLKHNDPFAPGGTVVAASDSATDPFASVFGNESFGGGFADFSTLSKVNNEDPFR
notes: also called GST-EPS15 fusion; C-terminal region of EPS15; source: purified GST fusion (purification described in Umasankar et al., 2012)
For B1, the binding result is recorded as “binds”.
